Substitutions are numbered along the chain they refer to.
B1: B7H6#14/CD3#6 (bispecific antibody, human IgG1, kappa, L234A L235A)
chain 1: DIQMTQSPSSLSASVGDRVTITCKASQNVGKYVAWYQQKPGKAPKSLIYSASNRYDGVPSRFSGSGSGTDFTLTISSLQPEDFATYFCQQYISYPLTFGAGTKLEIKRTVAAPSVFIFPPSDEQLKSGTASVVCLLNNFYPREAKVQWKVDNALQSGNSQESVTEQDSKDSTYSLSSTLTLSKADYEKHKVYACEVTHQGLSSPVTKSFNRGECGGGGSEGKSSGSGSESKSTEGKSSGSGSESKSTGGGGSQVQLVQSGAEVKKPGASVKVSCKASGYTFTNYWMNWMKQAPGQGLEWIGGIYLNGDSTDYNEKFKGKVTMTVDTSTSTVYMELSSLRSEDTAVYYCTRRGDYFGDFWGQGTLVTVSSASTKGPSVFPLAPSSKSTSGGTAALGCLVKDYFPEPVTVSWNSGALTSGVHTFPAVLQSSGLYSLSSVVTVPSSSLGTQTYICNVNHKPSNTKVDKRVEPKSCDKTHTCPPCPAPEAAGGPSVFLFPPKPKDTLMISRTPEVTCVVVDVSHEDPEVKFNWYVDGVEVHNAKTKPREEQYNSTYRVVSVLTVLHQDWLNGKEYKCKVSNKALPAPIEKTISKAKGQPREPQVYTLPPSREEMTKNQVSLWCLVKGFYPSDIAVEWESNGQPENNYKTTPPVLDSDGSFFLYSKLTVDKSRWQQGNVFSCSVMHEALHNHYTQKSLSLSPG
chain 2: not shown
notes: scFab-Fc heterodimer
B2: B7H6#23/CD3#2 (bispecific antibody, human IgG1, kappa, L234A L235A)
chain 1: B1 chain 1 with G57A, N283S, N306S, D308E
chain 2: not shown
notes: scFab-Fc heterodimer
B3: B7H6#11/CD3#1 (bispecific antibody)
chain 1: not shown
chain 2: EAVVTQEPSLTVSPGGTVTLTCRSSTGAVTTSNYANWVQEKPGQLPRGLIGGTNKRAPWVPARFSGSLLGGKAALTLSGAQPEDEAEYFCALWYSNLWVFGGGTKLTVLGQPKAAPSVTLFPPSSEELQANKATLVCLISDFYPGAVKVAWKADGSPVNTGVETTTPSKQSNNKYAASSYLSLTPEQWKSHRSYSCQVTHEGSTVEKTVAPAECSGGGGSEGKSSGSGSESKSTEGKSSGSGSESKSTGGGGSEVQLVESGGGLVQPGGSLKLSCAASGFTFNTYAMNWVRQAPGKGLEWVARIRSKYNNYATYYADSVKDRFTISRDDSKNTAYLQMNNLKTEDTAVYYCVRHGNFGNSYVSWFAYWGQGTLVTVSAASTKGPSVFPLAPSSKSTSGGTAALGCLVKDYFPEPVTVSWNSGALTSGVHTFPAVLQSSGLYSLSSVVTVPSSSLGTQTYICNVNHKPSNTKVDKRVEPKSCDKTHTCPPCPAPEAAGGPSVFLFPPKPKDTLMISRTPEVTCVVVDVSHEDPEVKFNWYVDGVEVHNAKTKPREEQYNSTYRVVSVLTVLHQDWLNGKEYKCKVSNKALPAPIEKTISKAKGQPREPQVYTLPPSREEMTKNQVSLSCAVKGFYPSDIAVEWESNGQPENNYKTTPPVLDSDGSFFLVSKLTVDKSRWQQGNVFSCSVMHEALHNRFTQKSLSLSPG
notes: scFab-Fc heterodimer, one B7H6 chain and one CD3 chain

Legend:
[1] = target: T1, chicken egg white lysozyme (chicken, UniProt P00698 19-147); assay: SPR, 1 µM binder over immobilized lysozyme
T1 construct: unrelated positively charged protein, amine-coupled to the chip; also called Lysozyme (positive)
T1 sequence (P00698 19-147): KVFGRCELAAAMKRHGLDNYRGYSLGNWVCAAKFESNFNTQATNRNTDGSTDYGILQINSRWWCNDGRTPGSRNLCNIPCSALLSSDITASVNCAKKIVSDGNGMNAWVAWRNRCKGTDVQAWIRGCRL
Procedure: (§1) The experiment was performed on a Biacore® T200 SPR system (GE Healthcare Life Sciences). The dilution, surface preparation, and binding experiments were performed at 25° C. in 1×HBS-EP buffer prepared from 10×HBS-EP. The flow rate for both the immobilization protocol and binding experiment was at 5 μL/min.
(§2) To prepare the surface for the non-specific binding experiment, chicken egg white lysozyme and trypsin inhibitor from Glycine max soybean were coupled manually to a Biacore® series S CM5 sensor chip (GE Healthcare sciences) with the surface density of 3000-5000 RU using the amine coupling kit according to the manufacture instructions. Samples were prepared at 1 μM in 1×HBS-EP buffer. The samples were injected over activated surfaces with a 10 min association and 15 min dissociation. The data was collected using Biacore® T200 Control Software version 2.0.1 and analyzed using Biacore® T200 Evaluation Software version 3.0 (GE Healthcare Life Sciences).

Human B7H1 = target: T2, Human B7H1 (human, UniProt Q9NZQ7 20-239); assay: SPR, binder captured on Protein A/G, HuB7H1 analyte
T2 construct: also called HuB7H1; huB7-H1
T2 sequence (Q9NZQ7 other isoform, or with tags, fused parts or gaps limits assumed): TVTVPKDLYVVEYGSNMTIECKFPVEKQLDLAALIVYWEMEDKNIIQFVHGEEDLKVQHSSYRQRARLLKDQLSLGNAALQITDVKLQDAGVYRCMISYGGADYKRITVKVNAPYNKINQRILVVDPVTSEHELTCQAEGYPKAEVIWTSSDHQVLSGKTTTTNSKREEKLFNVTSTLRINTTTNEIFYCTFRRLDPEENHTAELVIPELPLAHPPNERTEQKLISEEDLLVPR
Procedure: (§3) To determine the affinity of human and cyno B7H6 and human B7H1 to B7H6/CD3 binding proteins, the experiment was performed on a Biacore™ 8K instrument (GE Healthcare Life Sciences). Briefly, the B7H6/CD3 binding protein was captured via Protein A/G. The running buffer for this experiment and all serial dilutions were prepared in HBS-EP+. The CM5 sensor chip was activated with an equal mixture of EDC/NHS across both flow cells for 420 s at a flow rate of 10 μL/min and immobilized with recombinant Protein A/G (50 μg/ml in 10 mM NaOAc, pH 4.5) across all flow cells for 420 s at a flow rate of 10 μL/min resulting in about 2500 RU of Protein A/G on the surface. The sensor chip was deactivated with 1M ethanolamine-HCl across all flow cells for 420 s at a flow rate of 10 μL/min.
(§4) About 700 RU of the B7H6/CD3 binding protein was captured on flow cell 2 of the Protein A/G surface for 60 s at a flow rate of 10 μL/min. The analytes HuB7H6, CyB7H6 and HuB7H1 were injected across both flow cells over captured B7H6/CD3 binding protein for 300 s at a flow rate of 30 μL/min with a dissociation of 1200 s. The concentrations of HuB7H6 and CyB7H6 were 0 nM, 6.25 nM, 12.5 nM, 25 nM, 50 nM and 100 nM. The concentrations of HuB7H1 were 0 nM and 1 μM. The surface was regenerated by injecting 10 mM glycine-HCl, pH 1.5 for 20 s at a flow rate of 30 μL/min across both flow cells.
(§5) The reference flow cell 1 (interactions with sensor surface) and blank (HBS-EP+ or 0 nM analyte) were subtracted from the raw data.

Cyno B7H6-His [2] = target: T3, Cyno B7H6-His (cynomolgus monkey); assay: SPR, binder captured on Protein A/G, B7H6 analyte
T3 construct: also called CyB7H6; cyB7-H6
T3 chain: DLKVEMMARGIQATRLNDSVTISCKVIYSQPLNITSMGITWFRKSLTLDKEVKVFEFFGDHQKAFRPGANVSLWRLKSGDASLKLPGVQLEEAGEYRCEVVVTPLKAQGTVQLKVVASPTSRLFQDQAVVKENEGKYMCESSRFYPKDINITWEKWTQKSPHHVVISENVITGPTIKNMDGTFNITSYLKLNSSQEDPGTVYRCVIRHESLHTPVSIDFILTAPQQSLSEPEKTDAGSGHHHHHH
Procedure: as §3, §4, §5

[3] = target: T4, trypsin inhibitor from Glycine max soybean (Glycine max (soybean)); assay: SPR, 1 µM binder over immobilized trypsin inhibitor
T4 construct: unrelated negatively charged protein, amine-coupled to the chip
T4 sequence (P01070 25-205): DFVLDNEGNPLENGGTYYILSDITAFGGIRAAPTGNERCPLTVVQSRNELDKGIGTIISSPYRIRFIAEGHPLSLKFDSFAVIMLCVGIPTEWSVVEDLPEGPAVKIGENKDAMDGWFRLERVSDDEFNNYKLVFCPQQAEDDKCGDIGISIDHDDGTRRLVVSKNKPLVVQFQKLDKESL
Procedure: as §1, §2

Cyno CD3 E+G HuFc-6xHis [4] = target: T5, Cyno CD3 E+G HuFc-6xHis (cynomolgus monkey); assay: ratio of SPR KDs cyno/human
T5 construct: also called CyCD3E+G-hFc; cyCD3
T5 sequence (chain, as listed by the source limits assumed): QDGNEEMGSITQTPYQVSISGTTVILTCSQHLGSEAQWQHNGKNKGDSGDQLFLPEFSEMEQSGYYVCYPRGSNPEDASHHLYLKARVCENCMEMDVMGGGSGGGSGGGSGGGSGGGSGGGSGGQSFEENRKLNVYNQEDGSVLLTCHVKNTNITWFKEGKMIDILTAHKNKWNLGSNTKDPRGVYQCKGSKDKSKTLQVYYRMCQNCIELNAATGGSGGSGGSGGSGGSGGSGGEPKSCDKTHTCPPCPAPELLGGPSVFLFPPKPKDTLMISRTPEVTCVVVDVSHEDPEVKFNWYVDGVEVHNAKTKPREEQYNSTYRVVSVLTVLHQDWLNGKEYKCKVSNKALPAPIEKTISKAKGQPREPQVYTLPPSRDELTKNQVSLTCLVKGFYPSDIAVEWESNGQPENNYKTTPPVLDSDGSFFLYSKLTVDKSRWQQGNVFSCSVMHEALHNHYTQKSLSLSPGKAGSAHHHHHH
Procedure: as §4, §5
(§6) The B7H6/CD3 binding protein analyte was injected horizontally over the immobilized surface for 300 s at a flow rate of 30 μL/min with a dissociation of 600 s. The concentrations of the B7H6/CD3 binding protein used were 0 nM, 1.2 nM, 3.7 nM, 11.1 nM, 33.3 nM and 100 nM.

Cyno B7H6-His [5] = target: T3, Cyno B7H6-His; assay: ratio of SPR KDs cyno/human
Procedure: as §4, §5, §6

Human CD3 E+G HuFc-6xHis = target: T6, Human CD3 E+G HuFc-6xHis (human); assay: SPR, CD3E+G-hFc immobilized, binder analyte
T6 construct: also called HuCD3E+G-hFc; huCD3
T6 sequence (chain, as listed by the source limits assumed): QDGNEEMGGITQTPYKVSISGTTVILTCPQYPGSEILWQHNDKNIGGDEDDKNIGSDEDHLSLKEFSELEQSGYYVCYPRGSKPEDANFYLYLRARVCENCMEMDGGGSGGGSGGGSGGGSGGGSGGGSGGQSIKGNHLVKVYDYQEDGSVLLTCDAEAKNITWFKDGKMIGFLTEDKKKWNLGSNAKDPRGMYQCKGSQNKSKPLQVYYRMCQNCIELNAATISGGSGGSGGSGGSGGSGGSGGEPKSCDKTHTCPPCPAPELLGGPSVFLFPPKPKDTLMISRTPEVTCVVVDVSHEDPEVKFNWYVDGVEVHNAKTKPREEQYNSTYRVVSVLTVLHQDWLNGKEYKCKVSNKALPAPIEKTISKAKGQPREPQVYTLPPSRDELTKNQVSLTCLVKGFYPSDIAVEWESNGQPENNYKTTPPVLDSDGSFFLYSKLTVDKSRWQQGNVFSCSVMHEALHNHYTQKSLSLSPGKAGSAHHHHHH
Procedure: (§7) To determine the affinity of the B7H6/CD3 binding protein to human and cyno CD3E+G-hFc, the experiment was performed on a Bio-Rad ProteOn™ XPR36 instrument. Briefly, HuCD3E+G-hFc and CyCD3E+G were amine-coupled on a ProteOn™ GLM sensor chip (Bio-Rad) and the B7H6/CD3 binding protein was flowed over the immobilized surface. The running buffer for this experiment and all serial dilutions were prepared in HBS-EP+. The GLM sensor chip was normalized according to Bio-Rad's recommendations. The sensor chip was activated with an equal mixture of EDC/s-NHS in the horizontal direction for 300 s at a flow rate of 30 μL/min HuCD3E+G-hFc was immobilized in the vertical direction at 0.4 μg/mL, 0.2 μg/mL and 0.1 μg/mL in 10 mM acetate pH 4.5 to L1, L2 and L3, respectively, for 300 s at a flow rate of 30 μL/min resulting in about 100 RU of HuCD3E+G-hFc on L1, 40 RU of HuCD3E+G-hFc on L2 and 0 RU of HuCD3E+G-hFc on L3. CyCD3E+G-hFc was immobilized in the vertical direction at 0.4 μg/mL, 0.2 μg/mL and 0.1 μg/mL in 10 mM acetate pH 4.5 to L4, L5 and L6, respectively, for 300 s at a flow rate of 30 μL/min resulting in about 385 RU of […], 170 RU of CyCD3E+G-hFc on L5 and 50 RU of CyCD3E+G-hFc on L6. The sensor chip was deactivated with 1M ethanolamine-HCl in the horizontal direction for 300 s at a flow rate of 30 μL/min.
as §6
(§8) The interspot (interactions with sensor surface) and blank (HBS-EP+ or 0 nM analyte) were subtracted from the raw data.

Cyno CD3 E+G HuFc-6xHis [6] = target: T5, Cyno CD3 E+G HuFc-6xHis; assay: SPR, CD3E+G-hFc immobilized, binder analyte
Procedure: as §7, §6, §8

[7] = target: T7, Fc-His-tagged human B7H6 ECD (human); assay: ELISA, plate coated with Fc-His-tagged human B7H6 ECD, anti-human IgG F(ab')2-peroxidase, TMB
T7 construct: also called huB7H6-ECD-Fc-His; recombinant human B7H6 ECD
Procedure: To assess binding of B7H6/CD3 binding proteins to recombinant human Fc-His-tagged B7H6 ECD and human Fc-His-tagged Ala-mutated B7H6 extracellular proteins as described in Example 3, MediSorp™ plates (Nunc, 467320) were coated with […] recombinant proteins overnight at 4° C. The next day, plates were blocked with 0.5% bovine serum albumin (BSA) in phosphate buffered saline (PBS) for 1 hour at room temperature (RT). Subsequently plates were washed with […] containing 0.05% TWEEN®20 viscous liquid and B7H6/CD3 binding proteins were incubated at concentrations ranging from 0.00001 to 10 μg/ml. After an additional washing step, bound B7H6/CD3 binding proteins were detected by a peroxidase conjugated goat anti-human IgG F(ab′)₂-specific secondary antibody (Jackson Immunoresearch) and visualized by TMB substrate solution (Bender Med Systems).

[8] = target: T8, human B7H6 on HCT-15 cells (human, UniProt Q68D85 25-454); assay: cell-based or functional assay
T8 sequence (looked up): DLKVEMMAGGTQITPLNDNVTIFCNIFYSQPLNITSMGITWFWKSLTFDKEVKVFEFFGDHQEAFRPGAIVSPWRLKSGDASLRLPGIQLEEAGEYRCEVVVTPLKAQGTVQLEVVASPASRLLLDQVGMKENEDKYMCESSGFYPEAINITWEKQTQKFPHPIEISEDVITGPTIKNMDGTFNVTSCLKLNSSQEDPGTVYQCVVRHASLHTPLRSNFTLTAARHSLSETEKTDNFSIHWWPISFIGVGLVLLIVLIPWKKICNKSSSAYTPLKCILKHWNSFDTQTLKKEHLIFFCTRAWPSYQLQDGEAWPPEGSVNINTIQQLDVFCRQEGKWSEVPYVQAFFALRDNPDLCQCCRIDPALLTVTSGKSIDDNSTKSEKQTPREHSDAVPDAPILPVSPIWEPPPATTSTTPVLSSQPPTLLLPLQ

Binder | Non-specific binding (RU) [1] | binding result (Human B7H1) | Kd (Cyno B7H6-His [2]) | Non-specific binding (RU) [3] | cy/hu CD3 (Cyno CD3 E+G HuFc-6xHis [4]) | cy/hu B7-H6 (Cyno B7H6-His [5]) | Kd (Human CD3 E+G HuFc-6xHis) | Kd (Cyno CD3 E+G HuFc-6xHis [6]) | EC50 (read off the curve) [7] | EC50 [nM], 72 hour cytotoxicity assay, non-stimulated T-cells (Donor #1) as effector cells, HCT-15 cells as target cells [8]
B1 | 15.7 RU | no binding (tested: 1 µM) | 0.9 nM | 34 RU | 1.4 | 2.1 | 4.1 nM | 5.7 nM | – | –
B2 | 37.8 RU | no binding (tested: 1 µM) | 2 nM | 47.8 RU | 1 | 1.1 | 10.4 nM | 10 nM | – | –
B3 | – | – | – | – | – | – | – | – | ~0.05 µg/mL | 0.77 nM
